# Source: article PMC4603797, “The Structural Differences between a Glycoprotein Specific F-Box Protein Fbs1 and Its Homologous Protein FBG3” (PLoS ONE, 2015)
# B1: SBD of Fbs1 (117–297), wild type [murine] / ribonuclease B [modified: a single high-mannose oligosaccharide; a single high-mannose oligosaccharide] [bovine] (parent)
# chain 1: FYFLSKRRRNLLRNPCGEEDLEGWSDVEHGGDGWRVEELPGDNGVEFTQDDSVKKYFASSFEWCRKAQVIDLQAEGYWEELLDTTQPAIVVKDWYSGRTDAGSLYELTVRLLSENEDVLAEFATGQVAVPEDGSWMEISHTFIDYGPGVRFVRFEHGGQDSVYWKGWFGARVTNSSVWVEP
# chain 2: KETAAAKFERQHMDSSTSAASSSNYCNQMMKSRNLTKDRCKPVNTFVHESLADVQAVCSQKNVACKNGQTNCYQSYSTMSITDCRETGSSKYPNCAYKTTQANKHIIVACEGNPYVPVHFDASV
# Variants of: B1
# Assay: pull-down
# Details: with ribonuclease B [modified: a single high-mannose oligosaccharide, parent: 100, read off a plot
row,Variant,percent of parent [%]
1,chain 1 T99P A101C,25
2,chain 1 A101C,100
3,chain 1 L104K,110
4,chain 1 A101C L104K,110
5,chain 1 T99P L104K,48
6,chain 1 T99P,49
